Laboratory results published in the supplement of paper PMC10724198.
± gives the standard deviation of the averaged measurements.

Tested on: Saccharomyces cerevisiae
Test: protein stability index of tFT-peptide fusion (C-terminal peptide) (PSI (0-1 scale)); higher = more stable (slower turnover)
Conditions: genetic background: wild type; temperature: 30 C
Experimental: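 Multiplexed protein stability (MPS) profiling in S. cerevisiae. Random 12-aa peptides (tFT-X12 library) are fused to the C-terminus of a sfGFP-mCherry tandem fluorescent timer, after mCherry and a GGGS linker. Cells are FACS-sorted into 8 mCherry/sfGFP bins and deep-sequenced. The protein stability index (PSI) is the read-weighted bin average, scaled from 0 (unstable) to 1 (stable). Only peptides with >10 reads are reported; cells were grown at 30 °C in SC-His with glucose.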
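Also: PSI is a weighted mean of sequencing reads over stability bins, variants kept only with over 10 reads, mCherry proximal and sfGFP distal, peptide attached via GGGS linker.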

Sequence | protein stability index
ERLLLGLNRRLG | 0.643 ± 0.055
ERLLMLSGLRRA | 0.779 ± 0.1
ERLRLVPRKGLL | 0.714 ± 0.048
ERLRSDSLSYDI | 0.714 ± 0.052
ERSWQEKGVVRG | 0.699 ± 0.06
ERVGLISSRRGC | 0.696 ± 0.014
ERYRDVPVTSNR | 0.724 ± 0.013
ESALPFLYSLSG | 0.703 ± 0.021
ESEGSGVGACGG | 0.681 ± 0.02
ESGPQWLGTFVT | 0.733 ± 0.0094
ESGTVINKNSNK | 0.6661 ± 0.0054
ESQGYGSQAKLA | 0.694 ± 0.028
ESVPPILGQDPL | 0.773 ± 0.035
ETGMSHHINRIW | 0.752 ± 0.054
ETKKEETKRWRR | 0.6789 ± 0.0025
ETVFESFEVKCG | 0.68 ± 0.022
ETVRPYSPMRPG | 0.674 ± 0.016
EVCLTLTTADGH | 0.68826 ± 0.00011
EVEKKKKKKNNK | 0.663 ± 0.04
EVGTSGTWPGSV | 0.714 ± 0.013
EVLLVHWINPNA | 0.687 ± 0.047
EVMGGANDCGVV | 0.689 ± 0.012
EVRLGKDKANRI | 0.691 ± 0.067
EVRSDSFFKCEG | 0.6606 ± 0.0046
EVRTRSSRIHRI | 0.709 ± 0.082

Sequence | protein stability index
EVYAGGESDVMS | 0.637 ± 0.029
EWCGSLVVWTGG | 0.668 ± 0.018
EWGKCGRGLYGC | 0.666 ± 0.033
EWPVGLLREGLG | 0.6177 ± 0.0016
EWVKFCFPIVQS | 0.651 ± 0.048
EYKIKSIERRKK | 0.73 ± 0.04
EYQGARAAGQSL | 0.678 ± 0.02
FACVLVLFPFFL | 0.641 ± 0.099
FAFWGGHSWLSC | 0.791 ± 0.035
FAGNRDQEEERK | 0.706 ± 0.022
FALPSASHFPVP | 0.7289 ± 0.0046
FAPRRDPMQVQY | 0.6744 ± 0.0032
FASIESVENIEM | 0.709 ± 0.07
FAVLGGGVGGGG | 0.683 ± 0.043
FCCVAPLALPRM | 0.686 ± 0.013
FCFLAFLKTPKS | 0.58 ± 0.038
FCPEGGYSVFYL | 0.719 ± 0.019
FCPPMPSVIALH | 0.649 ± 0.024
FCRFCEFIFIFL | 0.499 ± 0.056
FCSCLCGGEFVR | 0.69 ± 0.03
FCSPPTLPPSPS | 0.732 ± 0.024
FCVFVGSSLVGF | 0.659 ± 0.019
FCVQRWWGEGGH | 0.6176 ± 0.0017
FDFISHLYWSIV | 0.582 ± 0.011
FDLPPCVPRARP | 0.767 ± 0.099

Sequence | protein stability index
FDLTFPPPPLPF | 0.719 ± 0.052
FDPTGPIGMRPT | 0.653 ± 0.0017
FDVLGPRVVSWV | 0.633 ± 0.093
FEAVDSLFMLVL | 0.686 ± 0.034
FEFGGGIRGSLG | 0.679 ± 0.048
FEIVARTYNVDT | 0.666 ± 0.023
FESRGEPPDIQV | 0.668 ± 0.049
FESTIKNINNSI | 0.714 ± 0.011
FFAFLLRSPSTS | 0.711 ± 0.064
FFFFPLLSVPDR | 0.6101 ± 0.0026
FFFGFFSVLSLG | 0.606 ± 0.089
FFFPGLLVPLFP | 0.727 ± 0.025
FFLPPPPPPPPL | 0.677 ± 0.015
FFLPTLQLTPYL | 0.795 ± 0.19
FFMPRCCSLALE | 0.644 ± 0.047
FFSHSAPAPFPL | 0.692 ± 0.017
FFVFFPLGGFWL | 0.668 ± 0.085
FFVGFASLRLVL | 0.5517 ± 0.0046
FFVVAPSPSPRL | 0.761 ± 0.0073
FFYYPSFLPSPL | 0.685 ± 0.011
FGFIEGKRLGIT | 0.62 ± 0.041
FGFRLFLPSFSA | 0.6433 ± 0.0029
FGGGGGGGLLWC | 0.739 ± 0.071
FGGLLFTRFGWE | 0.802 ± 0.056
FGLARGMFFLTV | 0.629 ± 0.056

Sequence | protein stability index
FGLCRSLESRQF | 0.6606 ± 0.0026
FGLPPGNWSSGH | 0.782 ± 0.028
FGNVLISMRNRL | 0.834 ± 0.11
FGPLFSEDTRKV | 0.703 ± 0.076
FGRFVLSCFDRK | 0.661 ± 0.019
FGRGGGGFLTLV | 0.647 ± 0.0034
FGSCVVVRRVGF | 0.619 ± 0.056
FGVHCSSPTSGG | 0.6684 ± 0.0013
FGVTRSPLDPLF | 0.665 ± 0.043
FGWEGGEEMAGG | 0.788 ± 0.0097
FHGGRGLLLGMN | 0.649 ± 0.077
FIPPPLALPFYS | 0.674 ± 0.056
FKCWAGVRCGMV | 0.611 ± 0.013
FKLVPCLGPSHF | 0.741 ± 0.047
FLAGGRFLCIVV | 0.593 ± 0.098
FLCPGELSYFCV | 0.666 ± 0.03
FLFRSFACALPS | 0.522 ± 0.0081
FLFSYIEGSPNP | 0.721 ± 0.073
FLFWFLFFCSSR | 0.49 ± 0.022
FLGGVGGLVLIG | 0.6672 ± 0.0047
FLHPLTPSPPLA | 0.711 ± 0.096
FLHPSPIPPPLP | 0.7092 ± 0.0012
FLLKKVLCINWQ | 0.545 ± 0.0028
FLLLSAGERCWD | 0.694 ± 0.085
FLLPLKCRSTTN | 0.712 ± 0.046

Sequence | protein stability index
FLLPPASLSLPP | 0.7074 ± 0.0034
FLPFRPFPPFSA | 0.621 ± 0.0064
FLPPSRFSPLRL | 0.708 ± 0.11
FLSEFFMPSPFP | 0.745 ± 0.097
FLSFIALLPFTS | 0.6748 ± 0.0021
FMACGVNIELRV | 0.643 ± 0.0088
FNCCSYTSPASG | 0.649 ± 0.015
FNEKNKKSTLER | 0.652 ± 0.043
FNIRDKVKRGAL | 0.666 ± 0.008
FNTRDTFLYTCR | 0.789 ± 0.11
FPALPPPLPQPP | 0.585 ± 0.031
FPCAPFLLLDVS | 0.663 ± 0.0029
FPDPTPNLRPPP | 0.636 ± 0.034
FPFFLPMASLFC | 0.559 ± 0.018
FPFWRLYNLELL | 0.492 ± 0.022
FPGLFLFVLLPG | 0.505 ± 0.013
FPGVGARAGVGV | 0.697 ± 0.027
FPHPPPGPRALH | 0.691 ± 0.16
FPLSLCPHRPSL | 0.716 ± 0.034
FPMHFRVRCRPV | 0.62 ± 0.045
FPPPLPPRLPPP | 0.702 ± 0.0061
FPPPPPPLTVLP | 0.728 ± 0.054
FPPPPTHPASSP | 0.691 ± 0.027
FPRHPPPFPRPT | 0.681 ± 0.031
FPVLFSCGYFPL | 0.792 ± 0.04

Sequence | protein stability index
FPWISPCCFTFP | 0.64 ± 0.042
FPYLLCPLFPWP | 0.665 ± 0.015
FQGKRTKQEGVK | 0.692 ± 0.071
FRASLPRVPFSS | 0.695 ± 0.11
FRDVRFSSRVPF | 0.786 ± 0.07
FRGATRPHSGRS | 0.676 ± 0.048
FRIFGFLVCPIM | 0.6257 ± 0.0038
FRLLFSFFWGYV | 0.595 ± 0.033
FRLLLLKIKSEQ | 0.619 ± 0.034
FRMLSRMKEILD | 0.634 ± 0.052
FRRARRLRWFGG | 0.637 ± 0.03
FRRLVTGVLSIF | 0.559 ± 0.028
FRRWHPPFFLFP | 0.713 ± 0.04
FRWLLVAGGWGE | 0.486 ± 0.024
FRYRLACRPIYQ | 0.616 ± 0.038
FSAFWLACFFGV | 0.717 ± 0.062
FSEKLLRSSVYR | 0.639 ± 0.19
FSFNGMTRNCLR | 0.715 ± 0.014
FSGGCSVHGLIS | 0.612 ± 0.071
FSGSSFNGLCSF | 0.701 ± 0.018
FSLHTSLLPSVP | 0.787 ± 0.14
